Experimental data taken from paper PMC9337824.
Values belong to the molecule of their own block, whether it stands above or below them.

Tests used:
[1] = target: Ligelizumab; experiment: SPR; IgG Fc antibodies covalently coupled to the sensor chip captured the anti-IgE mAbs (ligelizumab: Creative Biolabs, TAB755); Expi293-expressed human full-length IgE injected at 0.312–50 nM
[2] = target: Omalizumab; experiment: as above
[3] = target: CD23 on SKW6.4 B lymphoma cells (human (endogenous in SKW6.4)) (UniProt P06734); experiment: flow cytometry on cells; Alexa Fluor 647-conjugated UB-221, ligelizumab (UBP lot) or omalizumab at 0 to 10 μg/mL mixed with an equal volume of 15 μg/mL human IgE in PBS, 1 hour at room temperature; added to CD23^+ SKW6.4 cells for 30 minutes at 4°C
[4] = target: IgE in sera of patients with atopic dermatitis (human (endogenous in patients' sera)); experiment: ELISA; sera of AD patients with high basal IgE (>24,000 ng/mL, n = 10) incubated 1 hour at room temperature with mAb at 0–75,000 ng/mL; remaining free IgE measured on plates coated with FcεRIα-Fcγ
[5] = target: IgE in sera of patients with atopic dermatitis (human (endogenous in patients' sera)); experiment: ELISA; sera of AD patients with low basal IgE (<4,800 ng/mL, n = 9) incubated 1 hour at room temperature with mAb at 0–4,000 ng/mL (ligelizumab: Creative Biolabs TAB-755); remaining free IgE measured on plates coated with FcεRIα-Fcγ
[6] = target: CD23-bound IgE on SKW6.4 cells (human | human (endogenous in SKW6.4)) (UniProt P01854); experiment: flow cytometry on cells; CD23^+ SKW6.4 cells with 15 μg/mL human IgE for 30 minutes at 4°C, washed, then UB-221, ligelizumab (UBP lot) or omalizumab at 0–10 μg/mL in PBS for 30 minutes at 4°C; Brilliant Violet 421 anti-human IgG Fc

Sequence of IgE in sera of patients with atopic dermatitis (human (endogenous in patients' sera)) (P01854 whole entry): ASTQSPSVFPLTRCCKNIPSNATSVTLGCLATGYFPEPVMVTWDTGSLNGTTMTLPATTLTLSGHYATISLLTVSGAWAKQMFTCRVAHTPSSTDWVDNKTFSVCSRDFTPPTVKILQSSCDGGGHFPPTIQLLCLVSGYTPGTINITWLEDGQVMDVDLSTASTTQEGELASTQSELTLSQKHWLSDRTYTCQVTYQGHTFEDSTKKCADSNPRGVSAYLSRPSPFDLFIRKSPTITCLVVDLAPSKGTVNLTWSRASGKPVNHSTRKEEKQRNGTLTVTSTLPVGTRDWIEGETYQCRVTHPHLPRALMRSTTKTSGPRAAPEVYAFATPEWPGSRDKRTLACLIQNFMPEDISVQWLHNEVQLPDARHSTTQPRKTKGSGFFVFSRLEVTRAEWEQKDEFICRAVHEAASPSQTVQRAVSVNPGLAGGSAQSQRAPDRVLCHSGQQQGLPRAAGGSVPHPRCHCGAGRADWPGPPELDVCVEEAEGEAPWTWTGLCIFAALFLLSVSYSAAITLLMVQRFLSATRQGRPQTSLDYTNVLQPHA
Sequence of UniProt P06734 (P06734 whole entry): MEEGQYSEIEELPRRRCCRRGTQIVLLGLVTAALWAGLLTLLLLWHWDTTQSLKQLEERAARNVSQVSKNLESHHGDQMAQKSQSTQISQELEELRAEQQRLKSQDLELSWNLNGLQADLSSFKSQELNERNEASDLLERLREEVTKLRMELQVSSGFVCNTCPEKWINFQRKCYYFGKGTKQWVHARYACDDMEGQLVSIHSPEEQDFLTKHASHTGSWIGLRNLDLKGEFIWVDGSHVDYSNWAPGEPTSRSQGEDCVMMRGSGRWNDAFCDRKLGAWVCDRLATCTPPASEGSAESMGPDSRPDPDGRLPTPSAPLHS

Molecule: Expi293-expressed human full-length IgE (from UniProt P01854 1-546) (natural protein)
Kd [1]: 0.016 nM
Kd [2]: 0.23 nM

B1: Ligelizumab (antibody, V domains shown)
VH: QVQLVQSGAEVMKPGSSVKVSCKASGYTFSWYWLEWVRQAPGHGLEWMGEIDPGTFTTNYNEKFKARVTFTADTSTSTAYMELSSLRSEDTAVYYCARFSHFSGSNYDYFDYWGQGTLVTVSS
VL: EIVMTQSPATLSVSPGERATLSCRASQSIGTNIHWYQQKPGQAPRLLIYYASESISGIPARFSGSGSGTEFTLTISSLQSEDFAVYYCQQSWSWPTTFGGGTKVEIK
EC90 [4]: > 25 µg/mL
EC90 [5]: 1 µg/mL
maximum binding MFI [6]: 503 MFI

Results, then the molecule that gave them:

maximum binding MFI [3]: 191 MFI
Molecule: Preformed ligelizumab-IgE complex (from UniProt P01854 1-546)

maximum binding MFI [3]: 1280 MFI
Molecule: Preformed UB-221–IgE complex (from UniProt P01854 1-546)
